From patent US20120316071A1
Where a chain is given by its changes, count along the chain named. Names and notes keep the numbering of the source. Blank lines part the entries; values can stand above or below the binder they belong to.

Tests used:
[1] = molecular target: rHuman EGF R/Fc Chimera, CF (R&D Systems Cat#344-ER) (human) (UniProt P00533); test: Multispot ECL (MSD) titration; antigen spotted on plate; Fab 1570 nM; blank spot 866
[2] = molecular target: rHuman EGF R/Fc Chimera, CF (R&D Systems Cat#344-ER) (human) (UniProt P00533); test: Multispot ECL (MSD) titration; antigen spotted on plate; Fab 392.5 nM; blank spot 338
[3] = molecular target: rHuman EGF R/Fc Chimera, CF (R&D Systems Cat#344-ER) (human) (UniProt P00533); test: Multispot ECL (MSD) titration; antigen spotted on plate; Fab 98.1 nM; blank spot 210
[4] = molecular target: rHuman EGF R/Fc Chimera, CF (R&D Systems Cat#344-ER) (human) (UniProt P00533); test: Multispot ECL (MSD) titration; antigen spotted on plate; Fab […]; blank spot 149
[5] = molecular target: rHuman ErbB2/Fc Chimera (human) (UniProt P04626); test: ECL (MSD) multispot assay, antigen spotted; blank spot of this row 236
[6] = molecular target: Recombinant Human DLL4 (R&D Systems Cat#1506-D4/CF) (human) (UniProt Q9NR61); test: ELISA, DLL4 coated on plate, Fab at […] (cells of this row shifted one column left)
[7] = molecular target: rHuman ErbB2/Fc Chimera (human) (UniProt P04626); test: ECL (MSD) multispot assay, antigen spotted; blank spot of this row 223
[8] = molecular target: rHuman EGF R/Fc Chimera, CF (R&D Systems Cat#344-ER) (human) (UniProt P00533); test: ECL multispot (MSD) binding assay, antigen spotted on plate, Fab 0.04 uM
[9] = molecular target: rHuman ErbB2/Fc Chimera, CF (R&D Systems Cat#1129-ER) (human) (UniProt P04626); test: as above
[10] = molecular target: rHuman HGF R/c-MET/Fc Chimera, CF (R&D Systems Cat#358-MT/CF) (human) (UniProt P08581); test: MSD Multispot ECL, antigen spotted on plate, Fab at 240 nM; blank spot 316
Sequence of rHuman HGF R/c-MET/Fc Chimera, CF (R&D Systems Cat#358-MT/CF) (human) (P08581 25-932, change not shown): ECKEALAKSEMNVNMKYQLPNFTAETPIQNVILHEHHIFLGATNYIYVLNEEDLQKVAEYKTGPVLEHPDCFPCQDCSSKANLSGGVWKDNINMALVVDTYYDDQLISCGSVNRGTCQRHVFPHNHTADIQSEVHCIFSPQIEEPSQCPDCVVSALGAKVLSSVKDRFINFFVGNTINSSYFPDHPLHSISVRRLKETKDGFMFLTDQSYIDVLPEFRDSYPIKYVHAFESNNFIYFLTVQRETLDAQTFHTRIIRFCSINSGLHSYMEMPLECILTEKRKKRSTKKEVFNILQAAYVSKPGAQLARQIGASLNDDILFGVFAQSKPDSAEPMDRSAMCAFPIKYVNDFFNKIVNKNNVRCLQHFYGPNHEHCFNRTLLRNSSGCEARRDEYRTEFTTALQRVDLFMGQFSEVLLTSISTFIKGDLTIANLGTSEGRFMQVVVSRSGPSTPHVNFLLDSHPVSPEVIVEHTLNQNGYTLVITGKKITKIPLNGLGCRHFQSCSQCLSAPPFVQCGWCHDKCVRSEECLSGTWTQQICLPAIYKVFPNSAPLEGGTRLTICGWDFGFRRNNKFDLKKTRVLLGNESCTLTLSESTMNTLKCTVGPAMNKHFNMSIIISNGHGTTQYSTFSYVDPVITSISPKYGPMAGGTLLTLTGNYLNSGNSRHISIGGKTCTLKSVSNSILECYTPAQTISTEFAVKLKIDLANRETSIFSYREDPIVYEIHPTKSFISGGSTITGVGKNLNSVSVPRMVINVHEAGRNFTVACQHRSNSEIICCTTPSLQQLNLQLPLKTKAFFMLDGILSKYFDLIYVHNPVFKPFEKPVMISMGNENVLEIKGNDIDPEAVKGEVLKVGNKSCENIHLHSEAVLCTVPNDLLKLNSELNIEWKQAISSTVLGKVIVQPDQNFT

[11] = molecular target: rHuman EGF R/Fc Chimera, CF (R&D Systems Cat#344-ER) (human) (UniProt P00533); test: as above
[12] = molecular target: rHuman ErbB2/Fc Chimera, CF (R&D Systems Cat#1129-ER) (human) (UniProt P04626); test: as above
[13] = molecular target: rHuman IGF-1 sR, (IGF-1 sR), CF (R&D Systems Cat#391-GR) (human) (UniProt P08069); test: as above
[14] = molecular target: rHuman HGF R/c-MET/Fc Chimera, CF (R&D Systems Cat#358-MT/CF) (human) (UniProt P08581); test: MSD Multispot ECL, antigen spotted on plate, Fab at 60 nM; blank spot 237
[15] = molecular target: rHuman EGF R/Fc Chimera, CF (R&D Systems Cat#344-ER) (human) (UniProt P00533); test: as above
[16] = molecular target: rHuman ErbB2/Fc Chimera, CF (R&D Systems Cat#1129-ER) (human) (UniProt P04626); test: as above
[17] = molecular target: rHuman IGF-1 sR, (IGF-1 sR), CF (R&D Systems Cat#391-GR) (human) (UniProt P08069); test: as above
[18] = molecular target: rHuman HGF R/c-MET/Fc Chimera, CF (R&D Systems Cat#358-MT/CF) (human) (UniProt P08581); test: MSD Multispot ECL, antigen spotted on plate, Fab at 30 nM; blank spot 213
[19] = molecular target: rHuman EGF R/Fc Chimera, CF (R&D Systems Cat#344-ER) (human) (UniProt P00533); test: as above
[20] = molecular target: rHuman ErbB2/Fc Chimera, CF (R&D Systems Cat#1129-ER) (human) (UniProt P04626); test: as above
[21] = molecular target: rHuman IGF-1 sR, (IGF-1 sR), CF (R&D Systems Cat#391-GR) (human) (UniProt P08069); test: as above
[22] = molecular target: rHuman HGF R/c-MET/Fc Chimera, CF (R&D Systems Cat#358-MT/CF) (human) (UniProt P08581); test: MSD Multispot ECL, antigen spotted on plate, Fab at 480 nM; blank spot 362
[23] = molecular target: rHuman EGF R/Fc Chimera, CF (R&D Systems Cat#344-ER) (human) (UniProt P00533); test: as above
[24] = molecular target: rHuman ErbB2/Fc Chimera, CF (R&D Systems Cat#1129-ER) (human) (UniProt P04626); test: as above
[25] = molecular target: rHuman IGF-1 sR, (IGF-1 sR), CF (R&D Systems Cat#391-GR) (human) (UniProt P08069); test: as above
[26] = molecular target: rHuman HGF R/c-MET/Fc Chimera, CF (R&D Systems Cat#358-MT/CF) (human) (UniProt P08581); test: MSD Multispot ECL, antigen spotted on plate, Fab at 120 nM; blank spot 363
[27] = molecular target: rHuman EGF R/Fc Chimera, CF (R&D Systems Cat#344-ER) (human) (UniProt P00533); test: as above
[28] = molecular target: rHuman ErbB2/Fc Chimera, CF (R&D Systems Cat#1129-ER) (human) (UniProt P04626); test: as above
[29] = molecular target: rHuman IGF-1 sR, (IGF-1 sR), CF (R&D Systems Cat#391-GR) (human) (UniProt P08069); test: as above
[30] = molecular target: rHuman HGF R/c-MET/Fc Chimera, CF (R&D Systems Cat#358-MT/CF) (human) (UniProt P08581); test: MSD Multispot ECL, antigen spotted on plate, Fab at 3.8 nM; blank spot 198
[31] = molecular target: rHuman EGF R/Fc Chimera, CF (R&D Systems Cat#344-ER) (human) (UniProt P00533); test: as above
[32] = molecular target: rHuman ErbB2/Fc Chimera, CF (R&D Systems Cat#1129-ER) (human) (UniProt P04626); test: as above
[33] = molecular target: rHuman IGF-1 sR, (IGF-1 sR), CF (R&D Systems Cat#391-GR) (human) (UniProt P08069); test: as above
[34] = molecular target: rHuman HGF R/c-MET/Fc Chimera, CF (R&D Systems Cat#358-MT/CF) (human) (UniProt P08581); test: MSD Multispot ECL, antigen spotted on plate, Fab at 15 nM; blank spot 261
[35] = molecular target: rHuman EGF R/Fc Chimera, CF (R&D Systems Cat#344-ER) (human) (UniProt P00533); test: as above
[36] = molecular target: rHuman ErbB2/Fc Chimera, CF (R&D Systems Cat#1129-ER) (human) (UniProt P04626); test: as above
[37] = molecular target: rHuman IGF-1 sR, (IGF-1 sR), CF (R&D Systems Cat#391-GR) (human) (UniProt P08069); test: as above
[38] = molecular target: rHuman HGF R/c-MET/Fc Chimera, CF (R&D Systems Cat#358-MT/CF) (human) (UniProt P08581); test: MSD Multispot ECL, antigen spotted on plate, Fab at 7.5 nM; blank spot 217
[39] = molecular target: rHuman EGF R/Fc Chimera, CF (R&D Systems Cat#344-ER) (human) (UniProt P00533); test: as above
[40] = molecular target: rHuman ErbB2/Fc Chimera, CF (R&D Systems Cat#1129-ER) (human) (UniProt P04626); test: as above
[41] = molecular target: rHuman IGF-1 sR, (IGF-1 sR), CF (R&D Systems Cat#391-GR) (human) (UniProt P08069); test: as above

- ECL signal [1]: 2480
- ECL signal [2]: 744
- ECL signal [3]: 4390
- ECL signal [4]: 317
B1: Fab VH1-46_IGHD3-10*01_IGHJ4*01 & O1_IGKJ1*01 (Fab, V domains shown)
VH: QVQLVQSGAEVKKPGASVKVSCKASGYTFTSYYMHWVRQAPGQGLEWMGIINPSGGSTSYAQKFQGRVTMTRDTSTSTVYMELSSLRSEDTAVYYCAREYYYGSGSYYNDYFDYWGQGTLVTVSS
VL: DIVMTQTPLSLPVTPGEPASISCRSSQSLLDSDDGNTYLDWYLQKPGQSPQLLIYTLSYRASGVPDRFSGSGSGTDFTLKISRVEAEDVGVYYCMQRIEFPSWTFGQGTKVEIKR

- ECL signal [5]: 1040
B2: Fab VH5-51_IGHD5-18*01>3_IGHJ4*01 G100K/G104T S84V & V3-4_IGLJ1*01 (Fab, V domains shown)
VH: EVQLVQSGAEVKKPGESLKISCKGSGYSFTSYWIGWVRQMPGKGLEWMGIIYPGDSDTRYSPSFQGQVTISADKSISTAYLQWVSLKASDTAMYYCARRKYSYTYDYFDYWGQGTLVTVSS
VL: QTVVTQEPSFSVSPGGTVTLTCGLSSGSVSTSYYPSWYQQTPGQAPRTLIYSTNTRSSGVPDRFSGSILGNKAALTITGAQADDESDYYCVLYMGSGISYVFGTGTKVTVL

- ELISA signal [6]: 0.001
B3: Fab VH5-51_IGHD5-18*01>3_IGHJ4*01 G100K/G104T S28R (H:KT S28R) & V3-4_IGLJ1*01 M94R/S96M (L:RM) (Fab, V domains shown)
VH: B2 VH with S28R, V84S
VL: B2 VL with M94R, S96M

- ECL signal [7]: 1090
B4: Fab VH5-51_IGHD5-18*01>3_IGHJ4*01 G100K/G104T S84L & V3-4_IGLJ1*01 (Fab, V domains shown)
VH: B2 VH with V84L
VL: B2 VL

- ECL signal [8]: 1060
- ECL signal [9]: 1290
B5: Fab VH5-51_IGHD5-18*01>3_IGHJ4*01 G100K/G104T (H:KT) & V3-4_IGLJ1*01 G97A (Fab, V domains shown)
VH: B2 VH with V84S
VL: B2 VL with G97A

- ECL signal [10]: 834
- ECL signal [11]: 690
- ECL signal [12]: 833
- ECL signal [13]: 625
- ECL signal [14]: 623
- ECL signal [15]: 679
- ECL signal [16]: 777
- ECL signal [17]: 654
- ECL signal [18]: 640
- ECL signal [19]: 585
- ECL signal [20]: 726
- ECL signal [21]: 697
- ECL signal [22]: 951
- ECL signal [23]: 877
- ECL signal [24]: 965
- ECL signal [25]: 741
- ECL signal [26]: 785
- ECL signal [27]: 658
- ECL signal [28]: 822
- ECL signal [29]: 813
- ECL signal [30]: 519
- ECL signal [31]: 511
- ECL signal [32]: 714
- ECL signal [33]: 463
- ECL signal [34]: 694
- ECL signal [35]: 584
- ECL signal [36]: 713
- ECL signal [37]: 705
- ECL signal [38]: 558
- ECL signal [39]: 582
- ECL signal [40]: 695
- ECL signal [41]: 642
B6: Fab VH6-1_IGHD3-3*01_IGHJ4*01 & V4-3_IGLJ4*01 (Fab, V domains shown)
VH: QVQLQQSGPGLVKPSQTLSLTCAISGDSVSSNSAAWNWIRQSPSRGLEWLGRTYYRSKWYNDYAVSVKSRITINPDTSKNQFSLQLNSVTPEDTAVYYCAREYYDFWSGYYTDYFDYWGQGTLVTVSS
VL: QPVLTQPTSLSASPGASARLTCTLRSGINLGSYRIFWYQQKPESPPRYLLSYYSDSSKHQGSGVPSRFSGSKDASSNAGILVISGLQSEDEADYYCMIWHSSASFVFGGGTQLIIL
